Reference: US20110112279A1 (published 2011)

B1: S7 IgG (full-length human IgG1; LPG3-humankappaG6 and LPG4-humanHC-S7), expressed in CHO cells (antibody, V domains shown)
VH: EVQLVESGGGLVQPGGSLRLSCAASGFTISGSDIHWVRQAPGKGLEWVGRISPYGGNTNYADSVKGRFTISADTSKNTAYLQMNSLRAEDTAVYYCARVGGLKLLFDYWGQGTLVTVSS
VL: DIQMTQSPSSLSASVGDRVTITCRASQDVSTAVAWYQQKPGKAPKLLIYSASFLYSGVPSRFSGSGSGTDFTLTISSLQPEDFATYYCQQSYTTPPTFGQGTKVEIKR
B2: S4 Fab (antibody)
chain 1: MKKNIAFLLASMFVFSIATNAYADIQMTQSPSSLSASVGDRVTITCRASQDVSTAVAWYQQKPGKAPKLLIYSASFLYSGVPSRFSGSGSGTDFTLTISSLQPEDFATYYCQQSYTTPPTFGQGTKVEIKRTVAAPSVFIFPPSDEQLKSGTASVVCLLNNFYPREAKVQWKVDNALQSGNSQESVTEQDSKDSTYSLSSTLTLSKADYEKHKVYACEVTHQGLSSPVTKSFNRGECGASSGMADPNRFRGKDLA
chain 2: MKKNIAFLLASMFVFSIATNAYAEVQLVESGGGLVQPGGSLRLSCAASGFTISGSWIHWVRQAPGKGLEWVAWIAPYSGATDYADSVKGRFTISADTSKNTAYLQMNSLRAEDTAVYYCAREGGLYWVFDYWGQGTLVTVSSASTKGPSVFPLAPSSKSTSGGTAALGCLVKDYFPEPVTVSWNSGALTSGVHTFPAVLQSSGLYSLSSVVTVPSSSLGTQTYICNVNHKPSNTKVDKKVEPKSCDKTHL
B3: S4 IgG (full-length human IgG1; LPG3-humankappaG6 and LPG4-humanHC-S4), expressed in CHO cells (antibody)
light: DIQMTQSPSSLSASVGDRVTITCRASQDVSTAVAWYQQKPGKAPKLLIYSASFLYSGVPSRFSGSGSGTDFTLTISSLQPEDFATYYCQQSYTTPPTFGQGTKVEIKRTVAAPSVFIFPPSDEQLKSGTASVVCLLNNFYPREAKVQWKVDNALQSGNSQESVTEQDSKDSTYSLSSTLTLSKADYEKHKVYACEVTHQGLSSPVTKSFNRGEC
heavy: not shown

Tests used:
[1] = target: T1, human STOP-1, full length, C-terminal 8xHis tag (h762HIP; M1-K243-His), expressed in CHO-psgb cells (UniProt Q96CG8 31-243); test: competitive ELISA
T1 sequence (Q96CG8 other isoform, or with tags, fused parts or gaps): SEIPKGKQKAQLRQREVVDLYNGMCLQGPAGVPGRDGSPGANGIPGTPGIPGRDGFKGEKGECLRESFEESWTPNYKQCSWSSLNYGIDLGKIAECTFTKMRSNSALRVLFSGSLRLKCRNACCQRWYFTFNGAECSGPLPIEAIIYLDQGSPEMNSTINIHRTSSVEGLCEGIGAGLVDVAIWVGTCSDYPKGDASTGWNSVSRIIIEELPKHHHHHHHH

[2] = target: T2, human STOP-1 short form (L94-K243) with C-terminal His tag, baculovirus expressed (UniProt Q96CG8 94-243); test: competitive ELISA
T2 sequence (Q96CG8 94-243): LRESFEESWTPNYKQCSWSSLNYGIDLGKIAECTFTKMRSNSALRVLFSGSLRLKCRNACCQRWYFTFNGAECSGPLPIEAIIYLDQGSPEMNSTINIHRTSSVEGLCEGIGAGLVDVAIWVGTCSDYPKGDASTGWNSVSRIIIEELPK

[3] = target: T1, human STOP-1, full length, C-terminal …; test: competitive ELISA; F/F: coated full length, competed full length
[4] = target: T2, human STOP-1 short form (L94-K243) with …; test: competitive ELISA; S/S: coated short form, competed short form

Row | Binder | Kd [1] [nM] | Kd [2] [nM] | Kd [3] [nM] | Kd [4] [nM]
1 | B1 | 41 | 7.3 | 41 | 7.3
2 | B2 | 13 | 1.9 | 13.4 | –
3 | B3 | 3 | 0.5 | 3.1 | 0.5
